Test results: paper PMC5951847, “Substrate sequence selectivity of APOBEC3A implicates intra-DNA interactions”

Columns and labels:
A3A(E72A) [1] = target: T1, A3A(E72A) (Homo sapiens, UniProt P31941 1-199, E72A); assay: fluorescence anisotropy; pH 6.0; 50 mM MES pH 6.0, 100 mM NaCl, 0.5 mM TCEP, room temperature overnight, 10 nM TAMRA-oligo; competition with 300 nM A3A(E72A); pH series: acetate 4.0-5.0, MES 5.5-6.5, HEPES 7.0-8.0, Tris 8.5-9.0; conditions: protein: recombinant, tags: His6-SUMO removed by Ulp1 (untagged)
T1 sequence (P31941 whole entry E72A): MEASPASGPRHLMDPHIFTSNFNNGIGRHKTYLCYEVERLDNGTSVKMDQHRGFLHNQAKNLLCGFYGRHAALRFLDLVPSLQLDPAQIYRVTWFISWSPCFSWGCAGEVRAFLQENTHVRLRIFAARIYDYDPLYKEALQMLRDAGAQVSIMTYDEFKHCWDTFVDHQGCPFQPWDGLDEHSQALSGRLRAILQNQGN

A3A(E72A) [2] = target: T1, A3A(E72A); assay: competition; vs TAMRA-3A-TTCA-6A; 50 mM MES pH 6.0, 100 mM NaCl, 0.5 mM TCEP, room temperature overnight, 10 nM TAMRA-oligo; competition with 300 nM A3A(E72A); pH series: acetate 4.0-5.0, MES 5.5-6.5, HEPES 7.0-8.0, Tris 8.5-9.0; conditions: protein: recombinant; tags: His6-SUMO removed by Ulp1 (untagged); label: unlabeled

Binder	Kd (A3A(E72A) [1]; label: 5' TAMRA) [nM]	also measured
AAAGTCCAAAAA (ssDNA) [Poly A-GTCC (3A-GTCC-5A)]	152 ± 2	–
AAACTCAAAAAA (ssDNA) [Poly A-CTCA (3A-CTCA-5A)]	85 ± 1	–
TTTTTCTTTTTT (ssDNA) [Poly T-C (5T-C-6T)]	35 ± 2	–
ATTCA (ssDNA) [1A-TTCA]	–	binding result (A3A(E72A) [2]): no binding
AAACTCCAAAAA (ssDNA) [Poly A-CTCC (3A-CTCC-5A)]	101 ± 2	–
CCCCCCCCCCCC (ssDNA) [Poly C (12 C)]	1570 ± 117	–
AAAATCAAAAAA (ssDNA) [Poly A-ATCA (3A-ATCA-5A)]	145 ± 2	–
TTTTTTTTTTTT (ssDNA) [Poly T (12 T)]	748 ± 44	–
AAAATCGAAAAA (ssDNA) [Poly A-ATCG (3A-ATCG-5A)]	154 ± 2	–
AAAATCAAAAAA (ssDNA) [Poly A-TC (4A-TC-6A)]	143 ± 4	–
AAAGTCAAAAAA (ssDNA) [Poly A-GTCA (3A-GTCA-5A)]	150 ± 3	–
AAATTCTAAAAA (ssDNA) [Poly A-TTCT (3A-TTCT-5A)]	127 ± 2	–
AAATTCAAAAAA (ssDNA) [Poly A-TTCA (3A-TTCA-5A)]	90 ± 1	–
AAAGTCGAAAAA (ssDNA) [Poly A-GTCG (3A-GTCG-5A)]	150 ± 3	–
GCCAUCUAUCGAUGGG (structured_RNA) [SDHB hairpin RNA (UC in loop)]	–	Kd (A3A(E72A) [1]; label: TAMRA (5'), hairpin): 37 nM
AAAATCCAAAAA (ssDNA) [Poly A-ATCC (3A-ATCC-5A)]	163 ± 3	–
TTCAA (ssDNA) [TTCA-1A]	–	binding result (A3A(E72A) [2]): no binding
AAAATCTAAAAA (ssDNA) [Poly A-ATCT (3A-ATCT-5A)]	209 ± 5	–
AAAACCAAAAAA (ssDNA) [Poly A-CC (4A-CC-6A)]	250 ± 14	–
AAACTCTAAAAA (ssDNA) [Poly A-CTCT (3A-CTCT-5A)]	122 ± 2	–
AAAGTCTAAAAA (ssDNA) [Poly A-GTCT (3A-GTCT-5A)]	218 ± 7	–
AAATTCCAAAAA (ssDNA) [Poly A-TTCC (3A-TTCC-5A)]	114 ± 2	–
GCCAUCUAAAGAUGGG (structured_RNA) [SDHB hairpin RNA, loop UC to AA]	–	Kd (A3A(E72A) [1]; label: TAMRA (5'), hairpin): 202 nM
